Results on 2 molecules are retold here after article PMC4690471 (Cell, 2015).

B2: zebrafish RAG1 (271–1031) (domain or fragment, UniProt O13033 271-1031, looked up)
chain: RCQRDHLSTKLIPTEVPADLIRAVTCQVCDHLLSDPVQSPCRHLFCRLCIIRYTHALGPNCPTCNQHLNPSHLIKPAKFFLATLSSLPLLCPSEECSDWVRLDSFREHCLNHYREKESQEEQTPSEQNLDGYLPVNKGGRPRQHLLSLTRRAQKHRLRDLKNQVKTFAEKEEGGDVKSVCLTLFLLALRAGNEHKQADELEAMMQGRGFGLHPAVCLAIRVNTFLSCSQYHKMYRTVKATSGRQIFQPLHTLRNAEKELLPGFHQFEWQPALKNVSTSWDVGIIDGLSGWTVSVDDVPADTISRRFRYDVALVSALKDLEEDIMEGLRERALDDSMCTSGFTVVVKESCDGMGDVSEKHGSGPAVPEKAVRFSFTIMSISIRLEGEDDGITIFQEQKPNSELSCRPLCLMFVDESDHETLTAILGPVVAERKAMMESRLIISVGGLLRSFRFFFRGTGYDEKMVREMEGLEASGSTYICTLCDSTRAEASQNMVLHSITRSHDENLERYEIWRKNPFSESADELRDRVKGVSAKPFMETQPTLDALHCDIGNATEFYKIFQDEIGEVYQKPNPSREERRRWRSTLDKQLRKKMKLKPVMRMNGNYARRLMTREAVEAVCELVPSEERREALLKLMDLYLQMKPVWRSTCPSRDCPDQLCQYSYNSQQFADLLSSMFKYRYDGKITNYLHKTLAHVPEIVERDGSIGAWASEGNESGNKLFRRFRKMNARQSKTFELEDILKHHWLYTSKYLQKFMEAHKNS

Series [1] has as its target B2. Kind of series: cryo-EM structure.
The series “cryo-EM structure” concerns the molecule itself. The experiment in a line: cryo-EM structure.

B1: full-length zebrafish RAG2 (natural protein, UniProt O13034 1-530, looked up)
chain: MSLQPLTAVNCGSLVQPGFSLLDLEGDVYLFGQKGWPKRSCPTGIFGVRIKKGELKLRAISFSNNSSYLPPLRCPAIAHFEAQDGKPECYLIHGGRTPNNELSSSLYMLSVDSRGCNRKVTLRCEEKELVGDVPSARYGHTLSVINSRGKTACVLFGGRSYMPPTERTTQNWNSVGDCPPQVYLIDLEFGCCTAHTLPELTDGQSFHVALARQDCVYFLGGHILSSDCRPSRLIRLHVELLLGSPVLTCTILHEGLTITSAIASPIGYHEYIIFGGYQSETQKRMECTYVGLDDVGVHMESREPPQWTSEISHSRTWFGGSLGKGTALVAIPSEGNPTPPEAYHFYQVSFQKEQDGEATAQGCSQESTDFEDSAPLEDSEELYFGREPHELEYSSDVEGDTYNEEDEEDESQTGYWIKCCLSCQVDPNIWEPYYSTELTRPAMIFCSRGEGGHWVHAQCMELPESLLLQLSQDNSKYFCLDHGGLPKQEMTPPKQMLPVKRVPMKMTHRKAPVSLKMTPAKKTFLRRLFD
B1: the binding result in series [1] is on record as “binds”.

Turning to B2, the “stoichiometry N” value in the series “cryo-EM structure” was determined as 2.
